# From publication PMC11317151, “DNA binding and bridging by human CtIP in the healthy and diseased states” (Nucleic Acids Research, 2023)
# Biological target: the molecule itself
# Assay: native gel or EMSA; native blue PAGE of purified CtIP proteins, compared with the wild type (tetramer) and CtIP-L27E (dimer) reference proteins
row,Protein,binding result
1,"CtIP-L27E (natural protein, human, UniProt Q99708 1-897, looked up, CtIP, human, with the point mutation L27E in the N-terminal tetramerisation interface; Probably made like the wild type (insect cells, StrepII tag)) MNISGSSCGSPNSADTSSDFKDLWTKEKECHDREVQGLQVKVTKLKQERILDAQRLEEFFTKNQQLREQQKVLHETIKVLEDRLRAGLCDRCAVTEEHMRKKQQEFENIRQQNLKLITELMNERNTLQEENKKLSEQLQQKIENDQQHQAAELECEEDVIPDSPITAFSFSGVNRLRRKENPHVRYIEQTHTKLEHSVCANEMRKVSKSSTHPQHNPNENEILVADTYDQSQSPMAKAHGTSSYTPDKSSFNLATVVAETLGLGVQEESETQGPMSPLGDELYHCLEGNHKKQPFEESTRNTEDSLRFSDSTSKTPPQEELPTRVSSPVFGATSSIKSGLDLNTSLSPSLLQPGKKKHLKTLPFSNTCISRLEKTRSKSEDSALFTHHSLGSEVNKIIIQSSNKQILINKNISESLGEQNRTEYGKDSNTDKHLEPLKSLGGRTSKRKKTEEESEHEVSCPQASFDKENAFPFPMDNQFSMNGDCVMDKPLDLSDRFSAIQRQEKSQGSETSKNKFRQVTLYEALKTIPKGFSSSRKASDGNCTLPKDSPGEPCSQECIILQPLNKCSPDNKPSLQIKEENAVFKIPLRPRESLETENVLDDIKSAGSHEPIKIQTRSDHGGCELASVLQLNPCRTGKIKSLQNNQDVSFENIQWSIDPGADLSQYKMDVTVIDTKDGSQSKLGGETVDMDCTLVSETVLLKMKKQEQKGEKSSNEERKMNDSLEDMFDRTTHEEYESCLADSFSQAADEEEELSTATKKLHTHGDKQDKVKQKAFVEPYFKGDERETSLQNFPHIEVVRKKEERRKLLGHTCKECEIYYADMPAEEREKKLASCSRHRFRYIPPNTPENFWEVGFPSTQTCMERGYIKEDLDPCPRPKRRQPYNAIFSPKGKEQKT",binds

# Biological target: the molecule itself
# Assay: SEC-MALS; Superose 6 10/300; samples of 0.5–1 mg/ml injected; 20 mM Tris–Cl pH 8.0, 200 mM NaCl, 0.5 mM TCEP
row,Protein,stoichiometry N
1,"CtIP ΔN541 (domain or fragment, human, UniProt Q99708 541-897, looked up, CtIP, human, the first 540 amino acids removed (begins at residue 541); a and b are two SEC fractions (dimer and monomer peaks) of the same preparation; No tag cleavage is described in its purification; also called ΔN541a; ΔN541b; source: High-Five insect cells (baculovirus), purified (StrepTactin, MonoQ, Superose 6 SEC)) GNCTLPKDSPGEPCSQECIILQPLNKCSPDNKPSLQIKEENAVFKIPLRPRESLETENVLDDIKSAGSHEPIKIQTRSDHGGCELASVLQLNPCRTGKIKSLQNNQDVSFENIQWSIDPGADLSQYKMDVTVIDTKDGSQSKLGGETVDMDCTLVSETVLLKMKKQEQKGEKSSNEERKMNDSLEDMFDRTTHEEYESCLADSFSQAADEEEELSTATKKLHTHGDKQDKVKQKAFVEPYFKGDERETSLQNFPHIEVVRKKEERRKLLGHTCKECEIYYADMPAEEREKKLASCSRHRFRYIPPNTPENFWEVGFPSTQTCMERGYIKEDLDPCPRPKRRQPYNAIFSPKGKEQKT",2
2,"CtIP ΔC782 (domain or fragment, human, UniProt Q99708 1-782, looked up, designed to be equivalent to the deletion of Seckel-2 syndrome; also called ΔC782 CtIP; Seckel-2 variant) MNISGSSCGSPNSADTSSDFKDLWTKLKECHDREVQGLQVKVTKLKQERILDAQRLEEFFTKNQQLREQQKVLHETIKVLEDRLRAGLCDRCAVTEEHMRKKQQEFENIRQQNLKLITELMNERNTLQEENKKLSEQLQQKIENDQQHQAAELECEEDVIPDSPITAFSFSGVNRLRRKENPHVRYIEQTHTKLEHSVCANEMRKVSKSSTHPQHNPNENEILVADTYDQSQSPMAKAHGTSSYTPDKSSFNLATVVAETLGLGVQEESETQGPMSPLGDELYHCLEGNHKKQPFEESTRNTEDSLRFSDSTSKTPPQEELPTRVSSPVFGATSSIKSGLDLNTSLSPSLLQPGKKKHLKTLPFSNTCISRLEKTRSKSEDSALFTHHSLGSEVNKIIIQSSNKQILINKNISESLGEQNRTEYGKDSNTDKHLEPLKSLGGRTSKRKKTEEESEHEVSCPQASFDKENAFPFPMDNQFSMNGDCVMDKPLDLSDRFSAIQRQEKSQGSETSKNKFRQVTLYEALKTIPKGFSSSRKASDGNCTLPKDSPGEPCSQECIILQPLNKCSPDNKPSLQIKEENAVFKIPLRPRESLETENVLDDIKSAGSHEPIKIQTRSDHGGCELASVLQLNPCRTGKIKSLQNNQDVSFENIQWSIDPGADLSQYKMDVTVIDTKDGSQSKLGGETVDMDCTLVSETVLLKMKKQEQKGEKSSNEERKMNDSLEDMFDRTTHEEYESCLADSFSQAADEEEELSTATKKLHTHGDKQDKVKQKAFVEPYFK",4
3,"CtIP ΔC608 (domain or fragment, human, UniProt Q99708 1-608, looked up, designed to be equivalent to the deletion of Jawad syndrome; also called ΔC608 CtIP; Jawad variant) MNISGSSCGSPNSADTSSDFKDLWTKLKECHDREVQGLQVKVTKLKQERILDAQRLEEFFTKNQQLREQQKVLHETIKVLEDRLRAGLCDRCAVTEEHMRKKQQEFENIRQQNLKLITELMNERNTLQEENKKLSEQLQQKIENDQQHQAAELECEEDVIPDSPITAFSFSGVNRLRRKENPHVRYIEQTHTKLEHSVCANEMRKVSKSSTHPQHNPNENEILVADTYDQSQSPMAKAHGTSSYTPDKSSFNLATVVAETLGLGVQEESETQGPMSPLGDELYHCLEGNHKKQPFEESTRNTEDSLRFSDSTSKTPPQEELPTRVSSPVFGATSSIKSGLDLNTSLSPSLLQPGKKKHLKTLPFSNTCISRLEKTRSKSEDSALFTHHSLGSEVNKIIIQSSNKQILINKNISESLGEQNRTEYGKDSNTDKHLEPLKSLGGRTSKRKKTEEESEHEVSCPQASFDKENAFPFPMDNQFSMNGDCVMDKPLDLSDRFSAIQRQEKSQGSETSKNKFRQVTLYEALKTIPKGFSSSRKASDGNCTLPKDSPGEPCSQECIILQPLNKCSPDNKPSLQIKEENAVFKIPLRPRESLETENVLDDIKSAGS",4
4,"Wild type CtIP (natural protein, human, UniProt Q99708 1-897, looked up, CtIP, human DNA repair factor, wild type, full length; the tag was probably cleaved from the wild type too; also called WT-CtIP; CtIP-WT) MNISGSSCGSPNSADTSSDFKDLWTKLKECHDREVQGLQVKVTKLKQERILDAQRLEEFFTKNQQLREQQKVLHETIKVLEDRLRAGLCDRCAVTEEHMRKKQQEFENIRQQNLKLITELMNERNTLQEENKKLSEQLQQKIENDQQHQAAELECEEDVIPDSPITAFSFSGVNRLRRKENPHVRYIEQTHTKLEHSVCANEMRKVSKSSTHPQHNPNENEILVADTYDQSQSPMAKAHGTSSYTPDKSSFNLATVVAETLGLGVQEESETQGPMSPLGDELYHCLEGNHKKQPFEESTRNTEDSLRFSDSTSKTPPQEELPTRVSSPVFGATSSIKSGLDLNTSLSPSLLQPGKKKHLKTLPFSNTCISRLEKTRSKSEDSALFTHHSLGSEVNKIIIQSSNKQILINKNISESLGEQNRTEYGKDSNTDKHLEPLKSLGGRTSKRKKTEEESEHEVSCPQASFDKENAFPFPMDNQFSMNGDCVMDKPLDLSDRFSAIQRQEKSQGSETSKNKFRQVTLYEALKTIPKGFSSSRKASDGNCTLPKDSPGEPCSQECIILQPLNKCSPDNKPSLQIKEENAVFKIPLRPRESLETENVLDDIKSAGSHEPIKIQTRSDHGGCELASVLQLNPCRTGKIKSLQNNQDVSFENIQWSIDPGADLSQYKMDVTVIDTKDGSQSKLGGETVDMDCTLVSETVLLKMKKQEQKGEKSSNEERKMNDSLEDMFDRTTHEEYESCLADSFSQAADEEEELSTATKKLHTHGDKQDKVKQKAFVEPYFKGDERETSLQNFPHIEVVRKKEERRKLLGHTCKECEIYYADMPAEEREKKLASCSRHRFRYIPPNTPENFWEVGFPSTQTCMERGYIKEDLDPCPRPKRRQPYNAIFSPKGKEQKT",4
5,"CtIP-R100W (natural protein, human, UniProt Q99708 1-897, looked up, CtIP, human, with the point mutation R100W that is associated with Seckel-like disease and early onset breast cancer; Expected tetramer mass is printed as 404 kDa, as for the wild type; also called R100W CtIP; source: insect cells (baculovirus, pACEBac1), purified) MNISGSSCGSPNSADTSSDFKDLWTKLKECHDREVQGLQVKVTKLKQERILDAQRLEEFFTKNQQLREQQKVLHETIKVLEDRLRAGLCDRCAVTEEHMWKKQQEFENIRQQNLKLITELMNERNTLQEENKKLSEQLQQKIENDQQHQAAELECEEDVIPDSPITAFSFSGVNRLRRKENPHVRYIEQTHTKLEHSVCANEMRKVSKSSTHPQHNPNENEILVADTYDQSQSPMAKAHGTSSYTPDKSSFNLATVVAETLGLGVQEESETQGPMSPLGDELYHCLEGNHKKQPFEESTRNTEDSLRFSDSTSKTPPQEELPTRVSSPVFGATSSIKSGLDLNTSLSPSLLQPGKKKHLKTLPFSNTCISRLEKTRSKSEDSALFTHHSLGSEVNKIIIQSSNKQILINKNISESLGEQNRTEYGKDSNTDKHLEPLKSLGGRTSKRKKTEEESEHEVSCPQASFDKENAFPFPMDNQFSMNGDCVMDKPLDLSDRFSAIQRQEKSQGSETSKNKFRQVTLYEALKTIPKGFSSSRKASDGNCTLPKDSPGEPCSQECIILQPLNKCSPDNKPSLQIKEENAVFKIPLRPRESLETENVLDDIKSAGSHEPIKIQTRSDHGGCELASVLQLNPCRTGKIKSLQNNQDVSFENIQWSIDPGADLSQYKMDVTVIDTKDGSQSKLGGETVDMDCTLVSETVLLKMKKQEQKGEKSSNEERKMNDSLEDMFDRTTHEEYESCLADSFSQAADEEEELSTATKKLHTHGDKQDKVKQKAFVEPYFKGDERETSLQNFPHIEVVRKKEERRKLLGHTCKECEIYYADMPAEEREKKLASCSRHRFRYIPPNTPENFWEVGFPSTQTCMERGYIKEDLDPCPRPKRRQPYNAIFSPKGKEQKT",4
6,"CtIP ΔN500 (domain or fragment, human, UniProt Q99708 500-897, looked up, CtIP, human, the first 499 amino acids removed (begins at residue 500); a and b are two SEC fractions (dimer and monomer peaks) of the same preparation; also called ΔN500a; ΔN500b; source: High-Five insect cells (baculovirus), purified (StrepTactin, MonoQ, Superose 6 SEC); not shown: StrepII, C-terminal, kept) IQRQEKSQGSETSKNKFRQVTLYEALKTIPKGFSSSRKASDGNCTLPKDSPGEPCSQECIILQPLNKCSPDNKPSLQIKEENAVFKIPLRPRESLETENVLDDIKSAGSHEPIKIQTRSDHGGCELASVLQLNPCRTGKIKSLQNNQDVSFENIQWSIDPGADLSQYKMDVTVIDTKDGSQSKLGGETVDMDCTLVSETVLLKMKKQEQKGEKSSNEERKMNDSLEDMFDRTTHEEYESCLADSFSQAADEEEELSTATKKLHTHGDKQDKVKQKAFVEPYFKGDERETSLQNFPHIEVVRKKEERRKLLGHTCKECEIYYADMPAEEREKKLASCSRHRFRYIPPNTPENFWEVGFPSTQTCMERGYIKEDLDPCPRPKRRQPYNAIFSPKGKEQKT",2
